Test results taken from PMC10805794.

Legend:
[1] = molecular target: Beta spike antigen (Sanofi SARS-CoV-2 recombinant prefusion spike trimer, B.1.351 variant) (SARS-CoV-2 (B.1.351, Beta) | bacteriophage T4) (UniProt P0DTC2); experiment: SEC; Superose-6 column, analytical HPLC; antigens at 3 mg/mL stored at 4 °C for several weeks (cold stored) and an aliquot incubated at 37 °C for one day
[2] = molecular target: ancestral spike antigen (Sanofi SARS-CoV-2 recombinant prefusion spike trimer, Wuhan Hu-1) (SARS-CoV-2 (Wuhan Hu-1) | bacteriophage T4) (UniProt P0DTC2); experiment: as above

Work on “Beta spike antigen (Sanofi SARS-CoV-2 recombinant prefusion spike trimer, B.1.351 variant) (from UniProt P0DTC2 14-1213) (complex)” yielded a stoichiometry N [1] of 3.

In the case of “ancestral spike antigen (Sanofi SARS-CoV-2 recombinant prefusion spike trimer, Wuhan Hu-1) (from UniProt P0DTC2 14-1213) (complex)”, the stoichiometry N [2] is reported as 3.
